pKd: −log10 of the molar value.
Each substance was assayed on CsrA-H6 (Salmonella Typhimurium / Escherichia coli (sequences stated identical)) (assay: EMSA). Conditions: 10 mM MgCl2; yeast RNA 200 ng/uL; apparent Kd; RNA EMSA: 10 mM Tris-HCl pH 7.5, 10 mM MgCl2, 100 mM KCl, 200 ng/uL yeast RNA, 0.2 mg/mL BSA, 7.5% glycerol, 20 mM DTT, 37 C 30 min; DNA EMSA: 10 mM Tris pH ….

How did the pKd turn out when eutS RNA (-47 to +48) was run?
Its pKd is 8.24.

pduA RNA (-44 to +38) was tested. Which pKd did it give?
The pKd was 7.51.

How did the pKd turn out when pocR RNA (-91 to +3) was run?
The pKd was 8.13.

What follows are substances tested against CsrA-H6 (Salmonella Typhimurium / Escherichia coli (sequences stated identical)) (UniProt P69913) (assay: EMSA). Conditions: RNA EMSA: 10 mM Tris-HCl pH 7.5, 10 mM MgCl2, 100 mM KCl, 200 ng/uL yeast RNA, 0.2 mg/mL BSA, 7.5% glycerol, 20 mM DTT, 37 C 30 min; DNA EMSA: 10 mM Tris pH ….
CsrA-H6 (Salmonella Typhimurium / Escherichia coli (sequences stated identical)) (UniProt P69913), sequence (P69913 whole entry): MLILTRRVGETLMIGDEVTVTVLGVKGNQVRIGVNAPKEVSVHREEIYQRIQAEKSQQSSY

How did the pKd turn out when “GGGACAAAAAAUUGCCACGAUGACGGCAGUUUCAGUGGAGACGGUGAGCAAUGAAUAAAGAACGCAUUAUUCAGGAAUUUGUGCCGGGCAAACAGGUC [eutS RNA (-47 to +48)]” was run?
Its pKd is 8.24.

How did the pKd turn out when “GGGACUUUUUAUCAGGGCCAGGAUAAUGGUAAUAAAAAGUGAAUGUAAAUAAUGUGUUUUGUUUAUAACAAUAAAUUAACUGAGGGGUUUUAUCAUG [pocR RNA (-91 to +3)]” was run?
Its pKd is 8.13.

With “GGGUUCUUAUAGUCCCAACUAUCGGAACACUCCAUGCGAGGUCUUUAUGCAACAAGAAGCACUAGGAAUGGUAGAAACCAAAGG [pduA RNA (-44 to +38)]” as the substance, how does the pKd read?
The pKd was 7.51.
